According to patent US20140113854A1:
pKi: −log10 of the molar value.

target: Human α-thrombin (human) (UniProt P00734); assay: inhibition of thrombin by monovalent active-site moiety; conditions not given at the table

Row | Substance | pKi
1 | Bbs-R-(d-Pip)-W-NH2 (peptide) | 5.22
2 | Dansyl-R-(d-Tic)-NH2 (peptide) | 6.07
3 | Boc-dFPR (peptide) | 5.36

Next, values leading:

Row | pKi | Substance
4 | 5.95 | Bbs-R-(d-Pip)-NH2 (peptide)
5 | 6.43 | Dansyl-R-(d-Pip)-NH2 (peptide)
6 | 5.80 | H-dFPR (peptide)
7 | 3.77 | Ac-dFPR (peptide)
8 | 6.09 | Dansyl-R-(d-Pip)-Abu-NH2 (peptide)
9 | 5.65 | Bbs-R-(d-Pip)-G-NH2 (peptide)

target: Human α-thrombin (human) (UniProt P00734); assay: inhibition of thrombin-catalysed hydrolysis of chromogenic substrate S-2238, 37 °C

Row | pKi | Substance
10 | 8.70 | Bivalirudin (peptide)
